Drawing on publication PMC12159506, this text covers response for nine variants.

B1: SmBiT-C-CaSR-WT [not stated] / LgBiT-N-AP2σ-WT [not stated] (parent)
chain 1: not shown
chain 2: YGPDQRAQKKGDIILGGLFPIHFGVAAKDQDLKSRPESVECIRYNFRGFRWLQAMIFAIEEINSSPALLPNLTLGYRIFDTCNTVSKALEATLSFVAQNKIDSLNLDEFCNCSEHIPSTIAVVGATGSGVSTAVANLLGLFYIPQVSYASSSRLLSNKNQFKSFLRTIPNDEHQATAMADIIEYFRWNWVGTIAADDDYGRPGIEKFREEAEERDICIDFSELISQYSDEEEIQHVVEVIQNSTAKVIVVFSSGPDLEPLIKEIVRRNITGKIWLASEAWASSSLIAMPQYFHVVGGTIGFALKAGQIPGFREFLKKVHPRKSVHNGFAKEFWEETFNCHLQEGAKGPLPVDTFLRGHEESGDRFSNSSTAFRPLCTGDENISSVETPYIDYTHLRISYNVYLAVYSIAHALQDIYTCLPGRGLFTNGSCADIKKVEAWQVLKHLRHLNFTNNMGEQVTFDECGDLVGNYSIINWHLSPEDGSIVFKEVGYYNVYAKKGERLFINEEKILWSGFSREVPFSNCSRDCLAGTRKGIIEGEPTCCFECVECPDGEYSDETDASACNKCPDDFWSNENHTSCIAKEIEFLSWTEPFGIALTLFAVLGIFLTAFVLGVFIKFRNTPIVKATNRELSYLLLFSLLCCFSSSLFFIGEPQDWTCRLRQPAFGISFVLCISCILVKTNRVLLVFEAKIPTSFHRKWWGLNLQFLLVFLCTFMQIVICVIWLYTAPPSSYRNQELEDEIIFITCHEGSLMALGFLIGYTCLLAAICFFFAFKSRKLPENFNEAKFITFSMLIFFIVWISFIPAYASTYGKFVSAVEVIAILAASFGLLACIFFNKIYIILFKPSRNTIEEVRCSTAAHAFKVAARATLRRSNVSRKRSSSLGGSTGSTPSSSISSKSNSEDPFPQPERQKQQQPLALTQQEQQQQPLTLPQQQRSQQQPRCKQKVIFGSGTVTFSLSFDEPQKNAMAHRNSTHQNSLEAQKSSDTLTRHEPLLPLQCGETDLDLTVQETGLQGPVGGDQRPEVEDPEELSPALVVSSSQSFVISGGGSTVTENVVNS

Variants of B1 are the subject of one assay. Briefly: NanoBiT split-luciferase. Conditions: with LgBiT-N-AP2σ-WT; N = 7; read off a plot.
With chain 2 S959A, the response amounted to 4.8.
The same measure, in the same setting: then chain 2 T987A, with 4.9.
Still for that read-out and setting: then chain 2 T989A, with 4.7; and chain 2 S985A, with 4.9.
On the same count and under the same terms, then chain 2 L994A L995A, with 2.4.

Still in this assay, the particulars now being: with LgBiT-N-AP2σ-WT; N = 10; read off a plot.
Turning to chain 2 R990A, the response is 3.8.
Same read-out and setting: then chain 2 H991A, with 3; and chain 2 P993A, with 4.5.
Regarding chain 2 L994A L995A, the response is 2.1.

The assay is the same for the next values; noted with them: with LgBiT-N-AP2σ-WT; N = 6; read off a plot.
In the case of chain 2 R990A H991A E992A P993A L994A L995A, the response was 3.6.
In the case of chain 2 L994A L995A, the response amounted to 3.2.
